Data: a protein production outcome set (Wang et al. 2014)

Experiment: label from the status in PepcDB records

Sequence	protein production
MIDRPLEGKVAFITGAARGLGRAHAVRLAADGANIIAVDICEQIASVPYPLSTADDLAATVELVEDAGGGIVARQGDVRDRASLSVALQAGLDEFGRLDIVVANAGIAMMQAGDDGWRDVIDVNLTGVFHTVQVAIPTLIEQGTGGSIVLISSAAGLVGIGSSDPGSLGYAAAKHGVVGLMRAYANHLAPQNIRVNSVHPCGVDTPMINNEFFQQWLTTADMDAPHNLGNALPVELVQPTDIANAVAWLASEEARYVTGVTLPVDAGFVNKR	not failed
MIDVIGTDAGAPASLPAAQQALIRAAEQIAAPRRLQPALETWLESPVPLIDSDDPRHLVEVLSALSAQTNAVVLASGDPLWFGIGRILAERLGPERLRFHPAPTSLQLAFARIGRPWQDARWVSLHGRDPEPLARELQTRPRALAVLTDPGRGGADAVRRCLRSSGLEASYQLWLGENLGHADERMRLIPADAPLPEPLQPLLVALLIAEEPSIPNSRALPLFGLEDGLYLQHPDHPGLMTKREARIQLLADLDLPDQGVLWDLGAGTGSIGLEALRLRPQLRLLAVERRAGGAALIQANAKRLEVMPSAVVETDALSLLSADLPDGLDQPDRVLLGGGGPHREALLKAVLQRLRPSGIVVIPLATLEAVATLRPLMEQSGLTVQLNQLQAWRGQPLSDGTRLAPMNPILSLKGT	failed
MIDVPFLKNVTLKKENIPSFSAYPYCLPAIRTLQSLAFHPNVTFIIGENGTGKSTLLEGIAIALGFNAEGGTKNFRFSTNDSHSSLHEYLRISKSFNTPSDGFFLRAESFYNVASYIDEIDADLEARGNPVIDSYGGISLHEQSHGESFFSLFMNRFSGQGLYILDEPEAALSPMRQLSMLIRMHELAEQGSQFVIATHSPILMAYPESTIYSLTQEGIQESALEDTEHYQTTKLFFENRDRLFHHLFNSLEHHHHHH	not failed
MIDWPLAELLPHAGDMILIDQVLAFDEEQIRTRLEVRPGGLFNRPDGSLPAWVGVELMAQSVAAYAGCRARQQGLPVELGFLLGTRKFECNVEHFPLGSTLEIHALRSLEDDNGMGVFECHLSGPGITASARLNVFRPPQAADYLHETPASSTGTPS	failed
MIEIKNVNKVFYQGSKEILALKDINLHIAKGTIFGVIGSSGAGKSTLIRCVNMLEAPSSGSIIVDGVDLTTLSKKQLVETRRNIGMIFQHFNLLSSRTVFDNVALPLELAGKDKSQITTKVTELLKLVGLADKHESYPSNLSGGQKQRVAIARALASDPSVLLCDEATSALDPATTQSILELLKEINRKLNITILLITHEMEVVKSICHEVAIIGGGELVEKGTVGDIFAHPKTELAHEFIRSTLDLSIPEDYQARLQPNRVEGSYPLVRMEFTGATVDAPLMSQISRKYNIDVSILSSDLDYAGGVKFGMMVAELFGNEQDDSAAIEYLREHNVKVEVLGYVL	not failed
MIEKKRIEIFPKHMGFFPYMWFVYLLFPIYHLAQASGWKLVIGSGMLIIFIVTYRQLYFVQRTFVFWACIQMVLIFLFALFYNPFMIFFGFFTASAMGFAPNKKVFRVLLCSLVIMLGAFLFVNMNQLTTTSLVNIVPMFILMILTPFGMRNFNQKKMLRNQLDQANEQIKDLVKREERQRIARDLHDTLGHTLSLITLKSQLVEKLIVKNPERASAEAKEITQTSRTALKQLRELISDMRMITVEEELEQIKAILQAANIELEVRQEARSSSLSPIEQNIVGMCLREAVTNVVKHSKATRCAVSVLESQGELILKVEDNGIGLTDQNHDGNGIRGMKERIALIDGFVELGTINPGTLLTVKVPVVIRTGKDEVRA	failed
MIELQLELFPGHIAGLLLVELSKPVEDFASIFIQGTWECALLDAGVVFHKSQLLTAVNVAFQRFEAGRLKTHSLHNEVMLALSAKLSIRDGLAAVRFSWEKTRCLVVAVDPPASFPQAAESTSNALAAKVRHFPEGANELFNELLVHVDKPSIQNLYGTDIDPHWICTKIATVEYVRQLR	failed
MIEMLGIKIPLRKTTILPVLSFTLSSYFLTNFIFYLQYTDYTGLVEFLLIGAPFIGRAITPITYPFLMSRINIERITYLSLGNMAILDILEFFMGTDTLALILLRVATGILFGLATSAAVELATQSRSKIIMGMTMGGWALGWILSALMSFLMGKMVLITSSFSLVFFLLIKRSNIDKKLFSNSGSISIAFSWKALLIFLLGFEPAYILQLIPSLLGENNAIEETIIAYSISFIAYIILPSIGNIRISSLLTSLMIGILGFTSFITLKAWMFIPFTVLGLGLNSLLPIIIKLMKVEVTKIGPSMNLASLSGFLIPSLVSIGDIEINSAILTLISSISLGAIVYKNLKITA	failed
